Source: patent publication US20250059271A1 (BARRELMAN BIOSCIENCES, published 2025)
Substitutions are numbered along the chain they refer to.

T1: dProgastrin-SUMO protein (dog, UniProt P01353 22-104)
T1 construct: Unknown whether the listing entry 103 holds the tag; also called dProg-Sumo protein; dog progastrin His-SUMO protein; not shown: N-terminal His-SUMO tag
T1 sequence: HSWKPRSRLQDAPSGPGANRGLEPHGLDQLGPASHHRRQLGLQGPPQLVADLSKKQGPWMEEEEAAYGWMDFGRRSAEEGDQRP

B1: dProg-2-D6 mAb (antibody, V domains shown)
VH: QSVKESEGGLFKPTEPLTLTCTVSGFSLSSDNMGWVRQTPGKQLEWIGWIGSSGSAYYARWAKSRSTITRNTNENTVTLKMTSLTAADTATYFCARSGWGSFDIWGPGTLVTVSS
VL: AQVLTQTPSPVSAAVGSTVTISCQSSQSVYSNNRLAWFQQKPGQPPKLLIYLASTLASGVPSRFKGSGSGTQFTLTISEVQCDDAATYYCQGYYSGYIFGFGGGTEVVVKG
notes: Recombinant rabbit monoclonal antibody; also called D6 mAb (C terminus); dprogastrin-2_D6
B2: dProg-2-F4 mAb (antibody, V domains shown)
VH: QSVEESRGGLFKPTEPLTLTCTASGFTISSYHMGWVRQTPGKQLEWIGWIGSSGATYYASWATSRSTITRNTNDNTVTLKMTSLTAADTATYFCARSGWGSFDIWGPGALVTVSS
VL: B1 VL with S9A, P10S, S17G, S22N, S31N, N33D, S78G, G92S, S95N
notes: Recombinant rabbit monoclonal antibody; same entries as dProg-2-A3; also called dprogastrin-2_F4
B3: dProg-2-A3 mAb (antibody, V domains shown)
VH: B2 VH
VL: B1 VL with S9A, P10S, S17G, S22N, S31N, N33D, S78G, G92S, S95N
notes: Recombinant rabbit monoclonal antibody; same entries as dProg-2-F4; Biotinylated when used for detection; also called dprogastrin-2_A3 mAb

Target: T1, dProgastrin-SUMO protein
Experiment: ELISA; supernatant 1:2000 on 2 ug/ml dProgastrin-Sumo
Method: Deep well ELISA reading of 46 different monoclonal antibodies against 2 μg/ml dProgastrin-Sumo protein antigen versus 2 μg/ml anti rabbit antibodies. Supernatants containing the antibodies were diluted at 1:2000. […] Monoclonal antibodies with strong specificities against the dProgastrin C terminus at low concentrations include the D6 mAb, A3 mAb, and F4 mAb, among others.

Binder	OD
B1	2.02 OD
B2	1.99 OD
B3	2.19 OD
